Test results as given in patent US20210246199A1 (MIT, published 2021).
Read-outs that look alike come from different tables or passages of the source. Blank lines part the entries; values can stand above or below the binder they belong to.

Columns and labels:
Assay in all cases: scFv on yeast, soluble CXCL-SA; flow cytometry
[1] = molecular target: T1, ^NmCXCL5-SA^C (LIX/mCXCL5 48-118 fused to mouse serum albumin) (mouse, UniProt P50228 48-118; P07724 25-608)
T1 construct: soluble form
Protocol: (§1) In brief, DNA plasmids encoding single protein binder clones were transformed into genetically modified Saccharomyces cerevisiae yeast cells (EBY100 strain) using Frozen-EZ Yeast Transformation II Kit (Zymo Research) and plated on selective SD-CAA solid agar media. Individual colonies were inoculated in 5 mL SD-SCAA cultures, grown to mid-log phase (0D600=2-5) in SD-CAA media at 30° C. with shacking (250 rpm). Cells were induced in galactose-containing SG-CAA media for 20 hours at 20° C. with shacking (250 rpm) as previously described (Angelini, A. et al. Protein Engineering and Selection Using Yeast Surface Display. Methods Mol Biol 1319, 3-36 (2015)). The binding assays were conducted in 96-well plates (Corning) containing 1×10⁴ induced cells per well. […] Yeast cells displaying protein binders were incubated with varying concentration of soluble CXC chemokine fusions (^NCXCL-SA^S) bearing the His6 tag and the primary chicken anti-c-myc epitope tag (1:1000) antibody (Gallus Immunotech) overnight at 4° C. with shaking (150 rpm). […] After primary incubation, cells were pelleted (2500× g for 5 min at 4° C.) and washed twice with 200 μL ice-cold PBSA buffer. Secondary labeling was performed with goat anti-chicken and mouse anti-His6 epitope tag antibodies conjugated to Alexa Fluor dyes at recommended dilutions.

[2] = molecular target: T2, ^NmCXCL1-SA^C (KC/mCXCL1 25-96 fused to mouse serum albumin) (mouse, UniProt P12850 25-96; P07724 25-608)
T2 construct: soluble form
Protocol: as §1

[3] = molecular target: T3, ^NhCXCL5-SA^C (ENA-78/hCXCL5 44-114 fused to mouse serum albumin) (human; mouse, UniProt P42830 44-114; P07724 25-608)
T3 construct: soluble form
Protocol: as §1

[4] = molecular target: T4, ^NhCXCL1-SA^C (Groα/hCXCL1 35-107 fused to mouse serum albumin) (human; mouse, UniProt P09341 35-107; P07724 25-608)
T4 construct: soluble form; also called Groa
Protocol: as §1

[5] = molecular target: T5, ^NmCXCL2-SA^C (MIP-2/mCXCL2 28-100 fused to mouse serum albumin) (mouse, UniProt P10889 28-100; P07724 25-608)
T5 construct: soluble form
Protocol: as §1

[6] = molecular target: T6, ^NhCXCL3-SA^C (Groγ/hCXCL3 35-107 fused to mouse serum albumin) (human; mouse, UniProt P19876 35-107; P07724 25-608)
T6 construct: soluble form
Protocol: as §1

[7] = molecular target: T1, ^NmCXCL5-SA^C (LIX/mCXCL5 48-118 fused …); remark: listed apart in the source
Protocol: as §1

[8] = molecular target: T7, ^NmCXCL3-SA^C (DCIP-1/mCXCL3 28-100 fused to mouse serum albumin) (mouse, UniProt Q6W5C0 28-100; P07724 25-608)
T7 construct: soluble form
Protocol: as §1

[9] = molecular target: T2, ^NmCXCL1-SA^C (KC/mCXCL1 25-96 fused to …); remark: listed apart in the source
Protocol: as §1

[10] = molecular target: T3, ^NhCXCL5-SA^C (ENA-78/hCXCL5 44-114 …); remark: listed apart in the source
Protocol: as §1

[11] = molecular target: T8, ^NmCXCL11-SA^C (I-Tac/mCXCL11 22-100 fused to mouse serum albumin) (mouse, UniProt Q9JHH5 22-100; P07724 25-608)
T8 construct: soluble form
Protocol: as §1

[12] = molecular target: T9, ^NhCXCL10-SA^C (IP-10/hCXCL10 22-98 fused to mouse serum albumin) (human; mouse, UniProt P02778 22-98; P07724 25-608)
T9 construct: soluble form
Protocol: as §1

[13] = molecular target: T10, ^NhCXCL4-SA^C (PF-4/hCXCL4 32-101 fused to mouse serum albumin) (human; mouse, UniProt P02776 32-101; P07724 25-608)
T10 construct: soluble form
Protocol: as §1

[14] = molecular target: T11, ^NhCXCL2-SA^C (Groβ/hCXCL2 35-107 fused to mouse serum albumin) (human; mouse, UniProt P19875 35-107; P07724 25-608)
T11 construct: soluble form
Protocol: as §1

[15] = molecular target: T12, ^NmCXCL7-SA^C (Nap-2/mCXCL7 48-113 fused to mouse serum albumin) (mouse)
T12 construct: soluble form
T12 chain: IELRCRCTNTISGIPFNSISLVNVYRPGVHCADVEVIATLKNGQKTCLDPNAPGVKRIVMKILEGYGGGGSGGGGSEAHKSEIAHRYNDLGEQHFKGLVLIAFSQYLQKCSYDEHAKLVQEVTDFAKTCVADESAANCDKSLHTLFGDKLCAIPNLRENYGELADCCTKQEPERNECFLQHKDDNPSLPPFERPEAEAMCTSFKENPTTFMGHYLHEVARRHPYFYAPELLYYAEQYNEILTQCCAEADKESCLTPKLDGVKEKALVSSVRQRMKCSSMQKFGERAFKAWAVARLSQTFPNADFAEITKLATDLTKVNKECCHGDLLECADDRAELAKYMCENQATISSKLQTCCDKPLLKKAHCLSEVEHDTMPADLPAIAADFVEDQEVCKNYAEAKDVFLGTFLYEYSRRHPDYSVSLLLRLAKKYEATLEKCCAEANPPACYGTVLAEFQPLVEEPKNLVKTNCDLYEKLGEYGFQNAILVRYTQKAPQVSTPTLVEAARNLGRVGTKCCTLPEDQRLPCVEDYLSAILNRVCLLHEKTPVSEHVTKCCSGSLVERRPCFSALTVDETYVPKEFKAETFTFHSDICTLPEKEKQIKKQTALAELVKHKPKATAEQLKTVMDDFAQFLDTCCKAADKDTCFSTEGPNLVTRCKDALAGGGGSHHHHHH
Protocol: as §1

[16] = molecular target: T4, ^NhCXCL1-SA^C (Groα/hCXCL1 35-107 fused …); remark: listed apart in the source
Protocol: as §1

[17] = molecular target: T13, ^NmCXCL4-SA^C (Pf-4/mCXCL4 30-105 fused to mouse serum albumin) (mouse, UniProt Q9Z126 30-105; P07724 25-608)
T13 construct: soluble form
Protocol: as §1

[18] = molecular target: T14, ^NhCXCL11-SA^C (I-TAC/hCXCL11 22-94 fused to mouse serum albumin) (human; mouse, UniProt O14625 22-94; P07724 25-608)
T14 construct: soluble form
Protocol: as §1

[19] = molecular target: T15, ^NhCXCL6-SA^C (GCP-2/hCXCL6 43-114 fused to mouse serum albumin) (human; mouse, UniProt P80162 43-114; P07724 25-608)
T15 construct: soluble form
Protocol: as §1

[20] = molecular target: T16, ^NmCXCL10-SA^C (Ip-10/mCXCL10 22-98 fused to mouse serum albumin) (mouse, UniProt P17515 22-98; P07724 25-608)
T16 construct: soluble form
Protocol: as §1

[21] = molecular target: T5, ^NmCXCL2-SA^C (MIP-2/mCXCL2 28-100 …); remark: listed apart in the source
Protocol: as §1

five targets (of CK157) = molecular target: five targets (of CK157)
[22] = molecular target: T17, ^NhCXCL8-SA^C (IL-8/hCXCL8 28-99 fused to mouse serum albumin) (human; mouse, UniProt P10145 28-99; P07724 25-608)
T17 construct: soluble form
Protocol: as §1

[23] = molecular target: T17, ^NhCXCL8-SA^C (IL-8/hCXCL8 28-99 fused …); remark: listed apart in the source
Protocol: as §1

[24] = molecular target: these chemokines (the six ELR+ CXC chemokines recognized by CK138)

Kd [1]: 57.1 nM | Kd [2]: 20.6 nM | Kd [3]: 16.9 nM | Kd [4]: 36.2 nM | Kd [5]: 18.2 nM | Kd [6]: 53.9 nM | Kd [7]: 96.9 nM | Kd [8]: 17.4 nM | Kd [9]: 24.3 nM | Kd [10]: 26.3 nM | Kd [11]: 124 nM | Kd [12]: 45.5 nM | Kd [13]: 112 nM | Kd [14]: 57.9 nM | Kd [15]: 13.6 nM | Kd [16]: 61.1 nM | Kd [17]: 17.1 nM | Kd [18]: 131 nM | Kd [19]: 46.6 nM | Kd [20]: 44.4 nM | Kd [21]: 19.9 nM | fold improvement in affinity compared to the initial CK2 (five targets (of CK157)): 20 to 55 fold
B1: CK157 (scFv)
scFv: DIQMTQSPSSLSASVGDRVTITCRASQSYGGVAWYQQKPGKAPKLLIYSASYLYSGVPSRFSGSRSGTDFTLTISSLQPEDFATYYCQQPSHLITFGQGTEVEIKGTTAASGSSGGSSSGAEVQLVESGGGLVQPGGSLRLSCAASGSNPYYYGGTHWVRQAPGEELEWVASIGSYPGYTDYADSVKGRFTISADTSKNTAYLQMNSLRAEDTAVYYCARHYYWYDATDYWGQGTLVTVSS
notes: CK2 lineage

Kd [2]: 0.93 nM | fold increase in affinity (against the parental CK4 clone) [2]: 800 fold | Kd [4]: 0.79 nM | fold increase in affinity (against the parental CK4 clone) [4]: 50 fold | Kd [6]: 5.7 nM | Kd [9]: 1.1 nM | Kd [14]: 13.9 nM | Kd [16]: 1 nM
B2: CK129 (scFv)
scFv: DIQMTQSPSPLSASVGDRVTITCRASQYGGYVAWYQQKPGKAPKLLIYGASLLYSGVPSRFSGGRSGTDFTLTISSLQPEDFATYYCQRGHALITFGQGTKVEIEGTTAASGSSGGSSSGAEVQLVESGGGLVQPGGSLRLSCAASGFNISSYGSMHWVRQAPGKGLEWVASIYPYSSSTYYADSVKGRFTISADTSKNTAYLQMNSLRAEDTAVYYCARGYGPWYAYSYFALDYWGQGTLVTVSS
notes: CK4 lineage

Kd [1]: 193 nM | Kd [2]: 34.8 nM | Kd [3]: 5.8 nM | Kd [4]: 61.9 nM | Kd [5]: 36.2 nM | Kd [22]: 7.4 nM | Kd [6]: 349 nM | Kd [7]: 176 nM | Kd [8]: 10.9 nM | Kd [9]: 35.7 nM | Kd [10]: 5.8 nM | Kd [13]: 167 nM | Kd [14]: 267 nM | Kd [16]: 41.5 nM | Kd [19]: 153 nM | Kd [20]: 500 nM | Kd [21]: 29.1 nM | Kd [23]: 6.9 nM | fold improvement in affinity relative to the parental CK1 [24]: 30 to 340 fold
B3: CK138 (scFv)
scFv: AIQMTRSPSSLSASVGDRVTITCRASQYHDGSAAWYQQKPGKAPKLLIYGASYLYSGVPSRFSGSRSGTDFTLTISSLQPEDFATYYCQQSSYSLITFGQGTKVEIKGTTAASGSSGGSSSGAEVQLVESDGGLVQPGGSLRLSCAASGFNLSYYGMHWVRQAPGKGLEWVAYIASYPGYTSYADSVKGRFTISADTSKNTAYLQMNSLRAEDTAVYYCARSGYSYSPYYSWFSAGMNYWGQGALVTVSS
notes: CK1 lineage
